B1: ATOH8 (protein, UniProt Q96SQ7 1-321, looked up)
Transcription factor ATOH8: MKHIPVLEDGPWKTVCVKELNGLKKLKRKGKEPARRANGYKTFRLDLEAPEPRAVATNGLRDRTHRLQPVPVPVPVPVPVAPAVPPRGGTDTAGERGGSRAPEVSDARKRCFALGAVGPGLPTPPPPPPPAPQSQAPGGPEAQPFREPGLRPRILLCAPPARPAPSAPPAPPAPPESTVRPAPPTRPGESSYSSISHVIYNNHQDSSASPRKRPGEATAASSEIKALQQTRRLLANARERTRVHTISAAFEALRKQVPCYSYGQKLSKLAILRIACNYILSLARLADLDYSADHSNLSFSECVQRCTRTLQAEGRAKKRKE
B2: ATONAL1 (protein, UniProt Q92858 1-354, looked up)
Transcription factor ATOH1: MSRLLHAEEWAEVKELGDHHRQPQPHHLPQPPPPPQPPATLQAREHPVYPPELSLLDSTDPRAWLAPTLQGICTARAAQYLLHSPELGASEAAAPRDEVDGRGELVRRSSGGASSSKSPGPVKVREQLCKLKGGVVVDELGCSRQRAPSSKQVNGVQKQRRLAANARERRRMHGLNHAFDQLRNVIPSFNNDKKLSKYETLQMAQIYINALSELLQTPSGGEQPPPPPASCKSDHHHLRTAASYEGGAGNATAAGAQQASGGSQRPTPPGSCRTRFSAPASAGGYSVQLDALHFSTFEDSALTAMMAQKNLSPSLPGSILQPVQEENSKTSPRSHRSDGEFSPHSHYSDSDEAS
B3: PFDN5 (protein, UniProt Q99471 2-154, looked up)
Prefoldin subunit 5: AQSINITELNLPQLEMLKNQLDQEVEFLSTSIAQLKVVQTKYVEAKDCLNVLNKSNEGKELLVPLTSSMYVPGKLHDVEHVLIDVGTGYYVEKTAEDAKDFFKRKIDFLTKQMEKIQPALQEKHAMKQAVMEMMSQKIQQLTALGAAQATAKA
B4: PBX3 (protein, UniProt P40426 1-434, looked up)
Pre-B-cell leukemia …: MDDQSRMLQTLAGVNLAGHSVQGGMALPPPPHGHEGADGDGRKQDIGDILHQIMTITDQSLDEAQAKKHALNCHRMKPALFSVLCEIKEKTGLSIRGAQEEDPPDPQLMRLDNMLLAEGVSGPEKGGGSAAAAAAAAASGGSSDNSIEHSDYRAKLTQIRQIYHTELEKYEQACNEFTTHVMNLLREQSRTRPISPKEIERMVGIIHRKFSSIQMQLKQSTCEAVMILRSRFLDARRKRRNFSKQATEILNEYFYSHLSNPYPSEEAKEELAKKCSITVSQVSNWFGNKRIRYKKNIGKFQEEANLYAAKTAVTAAHAVAAAVQNNQTNSPTTPNSGSSGSFNLPNSGDMFMNMQSLNGDSYQGSQVGANVQSQVDTLRHVINQTGGYSDGLGGNSLYSPHNLNANGGWQDATTPSSVTSPTEGPGSVHSDTSN
B5: PCBD (protein, UniProt P61457 2-104, looked up)
Pterin-4-alpha-carbinolamine …: AGKAHRLSAEERDQLLPNLRAVGWNELEGRDAIFKQFHFKDFNRAFGFMTRVALQAEKLDHHPEWFNVYNKVHITLSTHECAGLSERDINLASFIEQVAVSMT

The molecules below were run on HEK293FT cells transfected with TF library (assay: Screening of TF condensates based on fluorescent puncta). Conditions: Figure 1B numerical data; TF library screen, one value per transcriptional factor.
Assay type: cell-based
How it was run: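 Cells were seeded onto plasmid/PEI-loaded wells (plasmid 1.6 μg/ml final) and grown 60 h. Medium with or without glucose followed for 12 h. Fixed, permeabilized cells were stained against Flag or GAL4 tags, and condensate puncta were quantified from 50 random fields per well.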

Molecule	Z score of condensed fraction
B1	-1.0319
B2	-0.5192
B3	0.7455
B4	0.7478
B5	-0.6656
